{"source": "paper PMC7694997", "molecular_target": "Mycoplasma penetrans methionyl-tRNA synthetase, full-length, M568A variant (Mycoplasma penetrans)", "experiment": "SEC-MALS; size exclusion chromatography with multiangle light scattering of the purified enzyme in solution; conditions not told in the main text", "data": [{"substance": "Mycoplasma penetrans methionyl-tRNA synthetase, full-length, M568A variant (enzyme)", "values": [{"measurement": "stoichiometry N", "result": 2}]}]}
